Positions count from the first letter of the chain named.
B1: IMAB027 (antibody, V domains shown)
VH: EVQLQQSGPELVKPGASMKISCKASGYSFTGYTMNWVKQSHGKNLEWIGLINPYNGGTIYNQKFKGKATLTVDKSSSTAYMELLSLTSEDSAVYYCARDYGFVLDYWGQGTTLTVSS
VL: IVLTQSPAIMSASPGEKVTITCSASSSVSYLHWFQQKPGTSPKLWVYSTSNLPSGVPARFGGSGSGTSYSLTISRMEAEDAATYYCQQRSIYPPWTFGGGTKLEIKR
B2: PiH2006 (antibody, V domains shown)
VH: QVQLVQSGAEVKKPGASVKVSCKASGYTFTDYNMHWVRQAPGQRLEWIGYINPNNGATNYNQKFKGRVTITVDTSASTAYMELSSLRSEDTAVYNCARWDGYVYYYGMDYWGQGTLVTVSS
VL: DIQMTQSPSSLSASVGGRVTITCKASDHINNWLAWYQQKPGKAPKLLISGATSLETGVPSRFSGSGSGTDYTFTISSLQPEDIATYYCQQYWNTPYTFGGGTKLEIKR
B3: PiH1006 (antibody, V domains shown)
VH: B2 VH with R44G, I51V, N59S, I70M, A76T, A79V, M108L
VL: B2 VL with A43V, K45R, F73L, I83V, N93S
B4: PiH1004 (antibody, V domains shown)
VH: B2 VH with R44S, I51V, N59S, V68A, I70M, T74K, A76T, A79V, M108L
VL: B2 VL with G17D, A43V, F73L, I83V, N93S
B5: PiH1008 (antibody, V domains shown)
VH: B2 VH with R44S, I51V, N59S, V68A, I70M, T74K, A76T, A79V, M108L
VL: B2 VL with A43V, K45R, F73L, I83V, N93S
B6: 54B5A7 (antibody, V domains shown)
VH: EVQLQQSGPELVKPGASVKMSCKASGYTFTDYNMHWVKKSHGKSLEWIGYINPNNGATNYNQKFKGKATLTVNKSSSTAYMELRSLTSEDSAVYNCARWDGYVYYYGMDYWGQGTSVTVSS
VL: DIQMTQSSSYLSVSLGGRVTITCKASDHINNWLAWYQQKPGNAPRLLISGATSLETGVPSRFSGSGSGKDYTLSITSLQTEDVATYYCQQYWNTPYTFGGGTKLEIKR
B7: 51C10H4 (antibody, V domains shown)
VH: B6 VH with I51V, N59S, M108L
VL: B6 VL with N93S
B8: RecA101 (antibody, V domains shown)
VH: B6 VH with I51V, N59S, M108L
VL: B6 VL

Molecular target: T1, monkey CLDN6 (Cyno CLDN6) (monkey (Cyno))
T1 chain: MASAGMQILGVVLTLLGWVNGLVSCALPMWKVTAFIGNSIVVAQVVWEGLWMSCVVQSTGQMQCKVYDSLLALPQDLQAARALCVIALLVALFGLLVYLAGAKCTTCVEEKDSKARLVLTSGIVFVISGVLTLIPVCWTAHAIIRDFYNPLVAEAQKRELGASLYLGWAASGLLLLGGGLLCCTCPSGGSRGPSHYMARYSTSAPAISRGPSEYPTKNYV
Assay: FACS

Binder | EC50
B1 | 0.0916 µg/mL
B2 | 1.33 µg/mL

Molecular target: T2, mouse CLDN6 (mouse, UniProt Q9Z262 1-219)
T2 chain: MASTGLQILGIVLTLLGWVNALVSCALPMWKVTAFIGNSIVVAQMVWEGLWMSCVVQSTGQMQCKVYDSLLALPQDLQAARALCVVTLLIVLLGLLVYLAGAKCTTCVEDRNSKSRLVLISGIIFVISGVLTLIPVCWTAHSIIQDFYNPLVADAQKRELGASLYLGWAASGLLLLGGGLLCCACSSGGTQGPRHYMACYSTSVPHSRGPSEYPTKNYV
Assay: FACS

Binder | EC50
B2 | 52.3 µg/mL
B3 | 18.4 µg/mL
B4 | 8.57 µg/mL
B5 | 6.42 µg/mL
B6 | 0.844 µg/mL
B7 | 0.608 µg/mL

Molecular target: T1, monkey CLDN6 (Cyno CLDN6)
Assay: FACS
Remark: another data set of the same source

Binder | EC50
B1 | 0.0916 µg/mL
B3 | 1.28 µg/mL
B4 | 0.844 µg/mL
B5 | 0.97 µg/mL
B7 | 0.636 µg/mL

Molecular target: T3, human CLDN6 (human, UniProt P56747 1-220)
T3 chain: T1 chain with R191Q
Assay: FACS; HepG2 cells

Binder | EC50
B8 | 0.521 µg/mL

Molecular target: T3, human CLDN6
Assay: FACS; HepG2 cells, FIG. 24

Binder | EC50
B1 | 0.537 µg/mL
